We go through one molecule from US20230144192A1 (Sanofi, published 2023).

The experiment addresses FcRn (UniProt P55899 24-297; P61769 21-119, limits assumed). Description: method not described; PBPK model input at pH 6.0, source given as 'Unpublished data'.

Chain of FcRn (P55899 24-297 limits assumed, form in doubt, chain 1 of 2): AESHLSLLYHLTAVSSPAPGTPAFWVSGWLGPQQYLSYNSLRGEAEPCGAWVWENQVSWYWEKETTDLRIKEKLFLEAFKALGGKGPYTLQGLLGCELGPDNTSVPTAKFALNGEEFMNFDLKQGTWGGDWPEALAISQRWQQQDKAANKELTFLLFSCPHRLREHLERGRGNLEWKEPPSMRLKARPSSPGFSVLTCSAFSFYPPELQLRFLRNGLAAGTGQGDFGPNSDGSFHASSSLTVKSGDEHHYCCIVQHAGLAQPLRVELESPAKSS
Chain of FcRn (P61769 21-119 limits assumed, form in doubt, chain 2 of 2): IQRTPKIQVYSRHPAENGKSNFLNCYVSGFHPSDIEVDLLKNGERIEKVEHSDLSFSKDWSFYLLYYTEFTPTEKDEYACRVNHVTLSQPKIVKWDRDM

B1: Ab1 (antibody, human IgG4 S228P, kappa)
heavy: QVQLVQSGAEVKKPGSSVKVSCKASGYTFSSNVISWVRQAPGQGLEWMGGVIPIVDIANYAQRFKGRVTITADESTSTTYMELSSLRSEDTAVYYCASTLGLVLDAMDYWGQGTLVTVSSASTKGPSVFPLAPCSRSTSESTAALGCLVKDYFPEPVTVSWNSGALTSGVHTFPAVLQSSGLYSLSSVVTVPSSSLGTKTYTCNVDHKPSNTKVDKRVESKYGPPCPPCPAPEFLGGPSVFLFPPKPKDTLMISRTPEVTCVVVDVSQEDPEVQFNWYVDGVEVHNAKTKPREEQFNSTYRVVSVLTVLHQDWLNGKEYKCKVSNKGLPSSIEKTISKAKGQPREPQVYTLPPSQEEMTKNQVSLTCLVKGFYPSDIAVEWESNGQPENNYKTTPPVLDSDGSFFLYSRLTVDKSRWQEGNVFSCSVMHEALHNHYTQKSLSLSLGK
light: ETVLTQSPGTLSLSPGERATLSCRASQSLGSSYLAWYQQKPGQAPRLLIYGASSRAPGIPDRFSGSGSGTDFTLTISRLEPEDFAVYYCQQYADSPITFGQGTRLEIKRTVAAPSVFIFPPSDEQLKSGTASVVCLLNNFYPREAKVQWKVDNALQSGNSQESVTEQDSKDSTYSLSSTLTLSKADYEKHKVYACEVTHQGLSSPVTKSFNRGEC
notes: Human IgG4 (S228P, Eu numbering) / kappa anti-TGF-beta antibody; also called GC2008; copies: 2 + 2
As to B1, the Kd (in general, the concentration at which binding is half-saturated) amounted to 1400 nM.
